Laboratory results taken from US20090270309A1, “USE OF LACTOFERRIN FRAGMENTS AND HYDROLYSATES” (priority 2005, published 2009).

B1: full length recombinant human lactoferrin: Full-length recombinant human lactoferrin, comparator (protein, UniProt P02788 1-710, looked up)
chain: MKLVFLVLLFLGALGLCLAGRRRSVQWCAVSQPEATKCFQWQRNMRKVRGPPVSCIKRDSPIQCIQAIAENRADAVTLDGGFIYEAGLAPYKLRPVAAEVYGTERQPRTHYYAVAVVKKGGSFQLNELQGLKSCHTGLRRTAGWNVPIGTLRPFLNWTGPPEPIEAAVARFFSASCVPGADKGQFPNLCRLCAGTGENKCAFSSQEPYFSYSGAFKCLRDGAGDVAFIRESTVFEDLSDEAERDEYELLCPDNTRKPVDKFKDCHLARVPSHAVVARSVNGKEDAIWNLLRQAQEKFGKDKSPKFQLFGSPSGQKDLLFKDSAIGFSRVPPRIDSGLYLGSGYFTAIQNLRKSEEEVAARRARVVWCAVGEQELRKCNQWSGLSEGSVTCSSASTTEDCIALVLKGEADAMSLDGGYVYTAGKCGLVPVLAENYKSQQSSDPDPNCVDRPVEGYLAVAVVRRSDTSLTWNSVKGKKSCHTAVDRTAGWNIPMGLLFNQTGSCKFDEYFSQSCAPGSDPRSNLCALCIGDEQGENKCVPNSNERYYGYTGAFRCLAENAGDVAFVKDVTVLQNTDGNNNEAWAKDLKLADFALLCLDGKRKPVTEARSCHLAMAPNHAVVSRMDKVERLKQVLLHQQAKFGRNGSDCPDKFCLFQSETKNLLFNDNTECLARLHGKTTYEKYLGPQYVAGITNLKKCSTSPLLEACEFLRK
modifications: full-length recombinant
notes: Full-length recombinant human lactoferrin, comparator
B2: SEQ ID NO. 6: Bovine lactoferrin N-lobe, residues 1-280 of SEQ ID NO. 2, tryptic cleavage (protein, listed as Bos taurus)
chain: APRKNVRWCTISQPEWFKCRRWQWRMKKLGAPSITCVRRAFALECIRAIAEKKADAVTLDGGMVFEAGRDPYKLRPVAAEIYGTKESPQTHYYAVAVVKKGSNFQLDQLQGRKSCHTGLGRSAGWIIPMGILRPYLSWTESLEPLQGAVAKFFSASCVPCIDRQAYPNLCQLCKGEGENQCACSSREPYFGYSGAFKCLQDGAGDVAFVKETTVFENLPEKADRDQYELLCLNNSRAPVDAFKECHLAQVPSHAVVARSVDGKEDLIWKLLSKAQEKFGK
B3: SEQ ID NO. 5: Recombinant human lactoferrin N-lobe, residues 1-333 of SEQ ID NO. 4, expressed from baby hamster kidney cells (protein)
chain: GRRRRSVQWCAVSQPEATKCFQWQRNMRKVRGPPVSCIKRDSPIQCIQAIAENRADAVTLDGGFIYEAGLAPYKLRPVAAEVYGTERQPRTHYYAVAVVKKGGSFQLNELQGLKSCHTGLRRTAGWNVPIGTLRPFLNWTGPPEPIEAAVARFFSASCVPGADKGQFPNLCRLCAGTGENKCAFSSQEPYFSYSGAFKCLRDGAGDVAFIRESTVFEDLSDEAERDEYELLCPDNTRKPVDKFKDCHLARVPSHAVVARSVNGKEDAIWNLLRQAQEKFGKDKSPKFQLFGSPSGQKDLLFKDSAIGFSRVPPRIDSGLYLGSGYFTAIQNLR
modifications: Recombinant human lactoferrin N-lobe
notes: 4, expressed from baby hamster kidney cells
B4: SEQ ID NO. 8: Bovine lactoferrin C-lobe, residues 285-689 of SEQ ID NO. 2, controlled tryptic hydrolysis (protein, listed as Bos taurus)
chain: SFQLFGSPPGQRDLLFKDSALGFLRIPSKVDSALYLGSRYLTTLKNLRETAEEVKARYTRVVWCAVGPEEQKKCQQWSQQSGQNVTCATASTTDDCIVLVLKGEADALNLDGGYIYTAGKCGLVPVLAENRKSSKHSSLDCVLRPTEGYLAVAVVKKANEGLTWNSLKDKKSCHTAVDRTAGWNIPMGLIVNQTGSCAFDEFFSQSCAPGADPKSRLCALCAGDDQGLDKCVPNSKEKYYGYTGAFRCLAEDVGDVAFVKNDTVWENTNGESTADWAKNLNREDFRLLCLDGTRKPVTEAQSCHLAVAPNHAVVSRSDRAAHVKQVLLHQQALFGKNGKNCPDKFCLFKSETKNLLFNDNTECLAKLGGRPTYEEYLGTEYVTAIANLKKCSTSPLLEACAFLTR
B5: SEQ ID NO. 7: Bovine lactoferrin C-lobe, residues 345-689 of SEQ ID NO. 2, tryptic cleavage (protein, listed as Bos taurus)
chain: VVWCAVGPEEQKKCQQWSQQSGQNVTCATASTTDDCIVLVLKGEADALNLDGGYIYTAGKCGLVPVLAENRKSSKHSSLDCVLRPTEGYLAVAVVKKANEGLTWNSLKDKKSCHTAVDRTAGWNIPMGLIVNQTGSCAFDEFFSQSCAPGADPKSRLCALCAGDDQGLDKCVPNSKEKYYGYTGAFRCLAEDVGDVAFVKNDTVWENTNGESTADWAKNLNREDFRLLCLDGTRKPVTEAQSCHLAVAPNHAVVSRSDRAAHVKQVLLHQQALFGKNGKNCPDKFCLFKSETKNLLFNDNTECLAKLGGRPTYEEYLGTEYVTAIANLKKCSTSPLLEACAFLTR
B6: osteoprotegerin (protein, UniProt O00300 22-401, looked up)
Tumor necrosis factor …: ETFPPKYLHYDEETSHQLLCDKCPPGTYLKQHCTAKWKTVCAPCPDHYYTDSWHTSDECLYCSPVCKELQYVKQECNRTHNRVCECKEGRYLEIEFCLKHRSCPPGFGVVQAGTPERNTVCKRCPDGFFSNETSSKAPCRKHTNCSVFGLLLTQKGNATHDNICSGNSESTQKCGIDVTLCEEAFFRFAVPTKFTPNWLSVLVDNLPGTKVNAESVERIKRQHSSQEQTFQLLKLWKHQNKDQDIVKKIIQDIDLCENSVQRHIGHANLTFEQLRSLMESLPGKKVGAEDIEKTIKACKPSDQILKLLSLWRIKNGDQDTLKGLMHALKHSKTYHFPKTVTQSLKKTIRFLHSFTMYKLYQKLFLEMIGNQVQSVKISCL

Experiments:
[1] = tested on: osteoclast development in a bone marrow culture; assay: Osteoclast development in mouse bone marrow culture (count of multinucleated osteoclast-like cells); assay type: cell-based; conditions: for Inhibition of osteoclast development in a bone marrow culture (in words): mouse bone marrow culture, 1 week, ANOVA P<0.0001; for Concentration with significant inhibition of osteoclast development: FIG. 7
Protocol: Bone marrow cultures were used to determine the effect of lactoferrin fragments on osteoclast development. The method used has been previously described (see Cornish, et al., (2001)). Bone marrow was obtained from the long bones of four to six week old Swiss male mice by flushing the marrow cavity with media. The cell suspension was incubated for two hours and the non-adherent cells were plated into 48-well plates and cultured in 1.25 vitamin D3 enriched media for 1 week with lactoferrin fragments at a range of concentrations. Cells were fixed and stained and multinucleated osteoclast-like cells were counted.
A recombinant N-lobe fragment of full length recombinant human lactoferrin (SEQ ID NO. 5) and a lactoferrin C-lobe fragment (SEQ ID NO. 8) were tested. Osteoprotegerin was used as a positive inhibitor control. Full length recombinant human lactoferrin was also tested. The results are shown in FIGS. 6 and 7, as described above.

primary rat osteoblasts = assay: Proliferation of primary rat osteoblasts (cell counts and [3H]-thymidine incorporation); assay type: cell-based; conditions: for Mitogenic / proliferative effect on primary osteoblasts (in words): figure legends, significantly different from control by ANOVA, post hoc Dunnett's test; for Dose (ug/mL): minimum dose range that stimulates osteoblast proliferation: primary rat osteoblasts, Table 1
Protocol: Osteoblasts were isolated by collagenase digestion from 20-day fetal rat ? viously described by Lowe, et al. (1991). Calvariae were dissected aseptically, and the frontal and parietal bones were stripped of their periosteum. Only the central portions of the bones, free from suture tissue, were collected. The calvariae were treated twice with phosphate buffered saline (PBS) containing 3 mM EDTA (pH 7.4) for 15 minutes at 37° C. in a shaking water bath. After washing once in PBS, the calvariae were treated twice with 3 ml of 1 mg/ml collagenase for 7 minutes at 37° C. After discarding the supernatants from digestions I and II, the calvariae were treated further two times with 3 ml of 2 mg/ml collagenase (30 mins, 37° C.). The supernatants of digestions III and IV were pooled, centrifuged, and the cells washed in Dulbecco's modified Eagle's medium (DME) with 10% fetal calf serum (FCS), suspended in DME/10% FCS, and placed in […] flasks. The cells were incubated under 5% CO2 and 95% air at 37° C. Confluence was reached by 5-6 days, at which time the cells were subcultured. After trypsinization using trypsin-EDTA (0.05%/0.53 mM), the cells were rinsed in minimum essential medium (MEM) with 5% FCS and resuspended in a fresh medium, then seeded at 5×10^4 cells/ml in 24-well plates (0.5 ml cell suspension per well, i.e., 1.4×10^4 cells/cm^2).
Proliferation studies (cell counts and thymidine incorporation) were performed both in actively growing and non-actively growing cell populations. To produce actively growing cells, sub-confluent populations (24 h after subculturing) were placed in fresh MEM containing 1% FCS and a lactoferrin fragment sample (see Table 1 below). To produce non-actively growing cells, sub-confluent populations were placed in serum-free medium with 0.1% bovine serum albumin plus a lactoferrin fragment sample. Cell numbers were analyzed at 6, 24, and 48 hours after the addition of lactoferrin fragment samples. The cell numbers were determined after detaching cells from the wells by exposure to trypsin/EDTA (0.05%/0.53 mM) for approximately 5 minutes at 37° C. Counting was performed in a haemocytometer chamber. [3H]-thymidine incorporation into actively growing and non-actively growing cells was assessed by pulsing the cells with [3H]-thymidine (1 μCi/well) two hours before the end of the incubation. The experiment was terminated at 6, 24, or 48 hours by washing the cells in MEM containing cold thymidine followed by the addition of 10% trichloroacetic acid. The precipitate was washed twice with ethanol:ether (3:1), and the wells desiccated at room temperature. The ? redissolved in 2 M KOH at 55° C. for 30 min, neutralized with 1 M HCl, and an aliquot counted for radioactivity. For both cell counts and thymidine incorporation, each experiment at each time point was performed at least 4 different times using experimental groups consisting of at least 6 wells.
The osteogenic response seen above was compared with that of insulin-like growth factor 1 (IGF-1), a well-recognized osteoblast mitogen. The magnitudes of response of the lactoferrin fragments were similar to IGF-1 in the same osteoblast cell culture system.

Row | Molecule | Inhibition of osteoclast development in a bone marrow culture (in words) [1] | Mitogenic / proliferative effect on primary osteoblasts (in words) (primary rat osteoblasts) | Dose (ug/mL): minimum dose range that stimulates osteoblast proliferation (primary rat osteoblasts) | Concentration with significant inhibition of osteoclast development ([1]; P<0.05 (post hoc Dunnett's test)) | Concentration with significant inhibition of osteoclast development ([1]; positive inhibitor control, P<0.01 (post hoc Dunnett's test))
1 | B1 | inhibition of osteoclast development | – | – | – | –
2 | B2 | – | mitogenic to primary osteoblasts | 1 to 100 µg/mL | – | –
3 | B3 | inhibition of osteoclast development | osteoblast proliferative effects | 0.1 to 10 µg/mL | – | –
4 | B4 | inhibition of osteoclast development | mitogenic to primary osteoblasts | 1 to 100 µg/mL | 50 µg/mL | –
5 | B5 | – | mitogenic to primary osteoblasts | 1 to 100 µg/mL | – | –
6 | B6 | – | – | – | – | 0.01 µg/mL
